Experimental data from IntAct's records for PubMed 27918561.

B1: Negative regulator of P-body association (Homo sapiens), A0A0U1RRE5 (parent)
chain: MGDQPCASGRSTLPPGNAREAKPPKKRCLLAPRWDYPEGTPNGGSTTLPSAPPPASAGLKSHPPPPEK
partner: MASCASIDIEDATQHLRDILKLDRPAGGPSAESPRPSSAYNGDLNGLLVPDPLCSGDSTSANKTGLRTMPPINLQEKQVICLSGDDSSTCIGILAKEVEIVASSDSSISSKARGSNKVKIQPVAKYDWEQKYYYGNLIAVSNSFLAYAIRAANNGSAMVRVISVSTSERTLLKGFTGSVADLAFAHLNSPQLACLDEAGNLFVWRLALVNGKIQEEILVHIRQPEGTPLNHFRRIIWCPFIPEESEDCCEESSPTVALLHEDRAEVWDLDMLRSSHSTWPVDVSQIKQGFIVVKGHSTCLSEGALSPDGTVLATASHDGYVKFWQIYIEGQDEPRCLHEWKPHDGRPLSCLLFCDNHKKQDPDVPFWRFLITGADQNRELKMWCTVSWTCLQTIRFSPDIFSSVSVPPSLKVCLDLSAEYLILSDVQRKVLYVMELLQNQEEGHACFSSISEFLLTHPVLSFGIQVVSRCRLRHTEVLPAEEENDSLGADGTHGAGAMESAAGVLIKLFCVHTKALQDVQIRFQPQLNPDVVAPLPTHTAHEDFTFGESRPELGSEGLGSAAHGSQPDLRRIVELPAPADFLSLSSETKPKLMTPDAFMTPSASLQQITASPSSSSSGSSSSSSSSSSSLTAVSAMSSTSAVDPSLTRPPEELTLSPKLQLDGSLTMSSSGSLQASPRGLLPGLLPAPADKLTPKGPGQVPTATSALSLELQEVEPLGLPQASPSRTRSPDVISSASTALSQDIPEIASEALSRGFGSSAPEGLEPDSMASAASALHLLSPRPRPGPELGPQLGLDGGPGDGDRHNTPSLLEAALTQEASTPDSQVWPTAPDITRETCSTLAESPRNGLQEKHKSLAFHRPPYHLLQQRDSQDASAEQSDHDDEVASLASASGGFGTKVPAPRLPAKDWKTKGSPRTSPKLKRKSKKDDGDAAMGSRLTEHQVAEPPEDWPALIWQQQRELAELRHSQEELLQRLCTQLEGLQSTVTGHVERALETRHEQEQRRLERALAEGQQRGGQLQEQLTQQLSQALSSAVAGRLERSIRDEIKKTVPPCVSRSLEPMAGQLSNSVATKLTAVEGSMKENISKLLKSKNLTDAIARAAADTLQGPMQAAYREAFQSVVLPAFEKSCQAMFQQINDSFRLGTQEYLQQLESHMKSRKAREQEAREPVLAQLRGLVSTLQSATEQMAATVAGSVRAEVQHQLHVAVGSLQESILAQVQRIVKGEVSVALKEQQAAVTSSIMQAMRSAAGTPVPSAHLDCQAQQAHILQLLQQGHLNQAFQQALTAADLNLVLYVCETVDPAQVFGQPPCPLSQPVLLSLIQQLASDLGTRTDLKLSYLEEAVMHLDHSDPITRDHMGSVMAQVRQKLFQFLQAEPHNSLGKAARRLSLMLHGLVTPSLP

Variants of: B1
Details: with edc4_human EDC4, Q6P2E9

Row | effect of a mutation on the interaction | Variant
1 | with no effect | P37A
2 | with no effect | K22A
3 | with no effect | T40A
4 | with no effect | R27A
5 | with no effect | P32A
6 | disrupting interaction strength | W34A
7 | disrupting interaction strength | L30A
8 | with no effect | P24A
9 | with no effect | P23A
10 | with no effect | D35A

Further lines, the variant ahead of its results:

Row | Variant | effect of a mutation on the interaction
11 | K26A | with no effect
12 | P41A | with no effect
13 | K25A | with no effect
14 | Y36A | with no effect
15 | E38A | with no effect
16 | G39A | with no effect
17 | L29A | with no effect
18 | R33A | with no effect
19 | C28A | with no effect
